Experimental data: patent US20250121087A1, “ANTIBODY-DRUG CONJUGATES COMPRISING ANTI-B7-H3 ANTIBODIES” (priority 2020, published 2025)

B1: Enoblituzumab (antibody, chains of the INN, looked up)
heavy: EVQLVESGGGLVQPGGSLRLSCAASGFTFSSFGMHWVRQAPGKGLEWVAYISSDSSAIYYADTVKGRFTISRDNAKNSLYLQMNSLRDEDTAVYYCGRGRENIYYGSRLDYWGQGTTVTVSSASTKGPSVFPLAPSSKSTSGGTAALGCLVKDYFPEPVTVSWNSGALTSGVHTFPAVLQSSGLYSLSSVVTVPSSSLGTQTYICNVNHKPSNTKVDKRVEPKSCDKTHTCPPCPAPELVGGPSVFLLPPKPKDTLMISRTPEVTCVVVDVSHEDPEVKFNWYVDGVEVHNAKTKPPEEQYNSTLRVVSVLTVLHQDWLNGKEYKCKVSNKALPAPIEKTISKAKGQPREPQVYTLPPSREEMTKNQVSLTCLVKGFYPSDIAVEWESNGQPENNYKTTPLVLDSDGSFFLYSKLTVDKSRWQQGNVFSCSVMHEALHNHYTQKSLSLSPG
light: DIQLTQSPSFLSASVGDRVTITCKASQNVDTNVAWYQQKPGKAPKALIYSASYRYSGVPSRFSGSGSGTDFTLTISSLQPEDFATYYCQQYNNYPFTFGQGTKLEIKRTVAAPSVFIFPPSDEQLKSGTASVVCLLNNFYPREAKVQWKVDNALQSGNSQESVTEQDSKDSTYSLSSTLTLSKADYEKHKVYACEVTHQGLSSPVTKSFNRGEC
B2: AB2 (antibody, V domains shown)
VH: QVQLVESGAEVKKPGASVKLSCKASGYTFSSYWMHWVRQAPGQRLEWMGEINPGNGHTNYNEKFKSRVTITVDKSASTAYMELSSLRSEDTAVYYCVADPRRPKVPTALFVYWGQGTLVTVSS
VL: DIQMTQSPSSVSASVGDRVTISCRASQGIGTWLAWYQQKPGKAPRLLIYAASSLDSGVPSRFSASGSGTDFTLTISSLQPEDFATYYCQQAINFPITFGQGTRLEIK

Assays:
B7-H3 = target: T1, B7-H3 (Homo sapiens, UniProt Q5ZPR3); settings: Table 1, development state of B7-H3 ADC; cited from earlier work
T1 sequence (Q5ZPR3 29-534): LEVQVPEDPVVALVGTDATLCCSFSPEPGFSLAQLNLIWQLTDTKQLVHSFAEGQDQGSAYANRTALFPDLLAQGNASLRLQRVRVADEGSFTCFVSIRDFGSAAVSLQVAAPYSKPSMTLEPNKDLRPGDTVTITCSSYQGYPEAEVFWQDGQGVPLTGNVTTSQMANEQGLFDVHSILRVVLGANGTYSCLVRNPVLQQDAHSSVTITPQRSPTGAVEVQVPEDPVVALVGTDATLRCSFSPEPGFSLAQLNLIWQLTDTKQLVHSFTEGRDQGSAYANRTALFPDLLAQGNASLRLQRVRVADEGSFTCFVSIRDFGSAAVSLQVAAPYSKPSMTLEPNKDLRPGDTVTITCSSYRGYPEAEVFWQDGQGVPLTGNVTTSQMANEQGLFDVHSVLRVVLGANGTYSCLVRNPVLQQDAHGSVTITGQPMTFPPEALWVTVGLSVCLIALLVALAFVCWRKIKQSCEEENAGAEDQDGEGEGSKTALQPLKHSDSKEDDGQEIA

cynomolgus monkey B7-H3 = experiment: Biacore (SPR) binding kinetics, cynomolgus monkey B7-H3; settings: analyte Cyno B7-H3, antibody as immobilized ligand
Protocol: (§1) The binding affinity of the purified anti-B7-H3 monoclonal antibodies was determined by BLI-based OCTET or SPR-based Biacore. Further the binding kinetics of the antibodies binding to human, cynomolgus monkey and mouse B7-H3 antigen are shown in Table 37.
(§2) A Biacore 8K (GE Life science) instrument was used to measure the binding kinetics about several B7-H3 variants (analyte) binding to various mAbs (ligands). Antibodies were captured onto the immobilized anti-human Fc antibody (GE Life science). Anti-Fc antibodies were immobilized to approximately 7,000 RU on CM5 sensor chip using a standard amine coupling method on both active cell and reference cell. For binding kinetic measurements, the HBS-EP+ was used for running buffer (10 mM Hepes, pH7.4, 150 mM NaCl, 3 mM EDTA, 0.05% polysorbate20). Anti-B7-H3 antibodies were diluted to 0.5 ug/mL in running buffer and injected for 110 s on active cells only. After capturing ligand, various B7-H3 antigens were analyzed for 120 s and the dissociation was monitored for 600 s at a flow rate of 30 ul/min. […] Kinetic information was calculated by fitting data to a 1:1 binding model using Biacore Insight Evaluation software (GE Life Science) to determine ka (association constant), kd (dissociation constant), and KD (equilibrium dissociation constant).

human 4Ig B7-H3 = target: T2, human 4Ig B7-H3 (Homo sapiens, UniProt Q5ZPR3); experiment: Biacore (SPR) binding kinetics, human 4Ig B7-H3; settings: analyte Human 4IgB7-H3, antibody as immobilized ligand
T2 construct: purchased Y-Biologics Inc
T2 sequence (Q5ZPR3 29-534): T1 sequence (Q5ZPR3 29-534)
Protocol: as §1, §2

mouse B7-H3 = target: T3, mouse B7-H3 (Mus musculus, UniProt Q8VE98); experiment: Biacore (SPR) binding kinetics, mouse B7-H3; settings: analyte Mouse B7-H3, antibody as immobilized ligand
T3 construct: purchased Sino biological Inc
T3 sequence (Q8VE98 29-316): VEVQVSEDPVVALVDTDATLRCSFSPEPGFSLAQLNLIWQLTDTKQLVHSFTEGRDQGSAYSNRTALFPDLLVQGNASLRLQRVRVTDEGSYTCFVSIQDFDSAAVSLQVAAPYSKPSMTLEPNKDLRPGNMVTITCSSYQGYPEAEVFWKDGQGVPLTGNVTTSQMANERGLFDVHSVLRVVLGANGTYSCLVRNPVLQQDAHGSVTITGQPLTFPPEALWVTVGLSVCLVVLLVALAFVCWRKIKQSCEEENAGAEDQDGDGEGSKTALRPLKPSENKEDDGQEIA
Protocol: as §1, §2

human 2Ig B7-H3 = target: T4, human 2Ig B7-H3 (Homo sapiens, UniProt Q5ZPR3); experiment: Biacore (SPR) binding kinetics, human 2Ig B7-H3; settings: analyte Human 2IgB7-H3, antibody as immobilized ligand
T4 construct: purchased Acrobiosystems
T4 sequence (Q5ZPR3 29-316 isoform Q5ZPR3-2 limits assumed): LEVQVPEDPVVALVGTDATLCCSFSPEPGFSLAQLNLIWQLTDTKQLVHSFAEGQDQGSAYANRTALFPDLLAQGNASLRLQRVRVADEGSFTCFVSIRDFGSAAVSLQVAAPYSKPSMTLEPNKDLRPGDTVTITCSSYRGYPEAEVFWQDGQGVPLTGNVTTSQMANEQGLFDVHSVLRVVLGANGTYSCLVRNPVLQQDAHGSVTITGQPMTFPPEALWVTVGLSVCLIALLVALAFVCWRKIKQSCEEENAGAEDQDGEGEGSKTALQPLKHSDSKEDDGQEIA
Protocol: as §1, §2

Molecule | Kd (B7-H3) [nM] | Ka (cynomolgus monkey B7-H3) [M⁻¹ s⁻¹] | Kd (cynomolgus monkey B7-H3) [s⁻¹] | Ka (human 4Ig B7-H3) [M⁻¹ s⁻¹] | Kd (human 4Ig B7-H3) [s⁻¹] | Ka (mouse B7-H3) [M⁻¹ s⁻¹] | Kd (mouse B7-H3) [s⁻¹] | Ka (human 2Ig B7-H3) [M⁻¹ s⁻¹] | Kd (human 2Ig B7-H3) [s⁻¹]
B1 | 7 | – | – | – | – | – | – | – | –
B2 | – | 481000 | 0.000442 | 446000 | 0.000199 | 408000 | 0.0193 | 206000 | 0.00515
